Experimental data from the Immune Epitope Database (IEDB).

Columns and labels:
[1] = molecular target: HLA-A*02:06; assay: IEDB peptide-MHC binding, cellular MHC/competitive/fluorescence; ≥ and ≤ were set here for values at or beyond the usual limits of such assays
[2] = molecular target: HLA-A*68:02; assay: as above
[3] = molecular target: HLA-A*02:01; assay: IEDB peptide-MHC binding, purified MHC/competitive/radioactivity; ≥ and ≤ were set here for values at or beyond the usual limits of such assays
[4] = molecular target: HLA-A*02:02; assay: as above
[5] = molecular target: HLA-A*02:03; assay: as above
[6] = molecular target: HLA-A*02:01; assay: IEDB peptide-MHC binding, cellular MHC/competitive/fluorescence; ≥ and ≤ were set here for values at or beyond the usual limits of such assays
[7] = molecular target: HLA-A*68:02; assay: IEDB peptide-MHC binding, purified MHC/competitive/radioactivity; ≥ and ≤ were set here for values at or beyond the usual limits of such assays
[8] = source organism: Vaccinia virus WR
[9] = source organism: Influenza A virus
[10] = source organism: Hepacivirus hominis
[11] = source organism: Mammarenavirus choriomeningitidis

Row | Sequence | IC50 [1, 8] | IC50 [2, 8] | IC50 [3, 8] | IC50 [4, 8] | IC50 [5, 8] | IC50 [6, 8] | IC50 [7, 8] | also measured
1 | DVDMDFDLNI | 5830 nM | 8840 nM | 4560 nM | 2040 nM | 1520 nM |  |  | 
2 | SLKRFTHTTA | 7310 nM | 6080 nM | 4540 nM | 884 nM | 726 nM |  |  | 
3 | SLALKNSQA | 19000 nM | 29600 nM | 2490 nM | 662 nM | 459 nM |  |  | 
4 | LINLVQYRIL | 15900 nM | 30000 nM | 2220 nM | 2120 nM | 2250 nM |  |  | 
5 | RMGAVTTEV |  |  |  |  |  |  |  | IC50 [1, 9]: 5520 nM; IC50 [2, 9]: 27100 nM; IC50 [3, 9]: 222 nM; IC50 [4, 9]: 90 nM; IC50 [5, 9]: 73 nM
6 | VLTILYYGA | 6240 nM | 18600 nM | 212 nM | 1.3 nM | 18 nM |  |  | 
7 | HLENDKIEDL | 10600 nM | 27100 nM | 1800 nM | 526 nM | 414 nM |  |  | 
8 | QILDNAAKYV | 11400 nM | 35800 nM | 3480 nM | 3930 nM | 3870 nM |  |  | 
9 | QLSNNKYVL | 10700 nM | 12500 nM | 1810 nM | 79 nM | 4940 nM |  |  | 
10 | ALKNSQAEL | 33000 nM | ≥ 70000 nM | 1740 nM | 71 nM | 17 nM |  |  | 
11 | KLDDTGKKEL | 5530 nM | 35200 nM | 450 nM | 101 nM | 139 nM |  |  | 
12 | VLQQNNSFII | 9640 nM | 16600 nM | 709 nM | 665 nM | 1030 nM |  |  | 
13 | KIMSGEKPSV |  |  |  |  |  |  |  | IC50 [1, 10]: 9470 nM; IC50 [2, 10]: ≥ 70000 nM; IC50 [3, 10]: 1120 nM; IC50 [4, 10]: 411 nM; IC50 [5, 10]: 1390 nM
14 | RLNKRSYLI |  |  |  |  |  |  |  | IC50 [1, 9]: 18500 nM; IC50 [2, 9]: 42600 nM; IC50 [4, 9]: 23 nM; IC50 [5, 9]: 146 nM
15 | GLSASDVDM | 13800 nM | ≥ 70000 nM | 1720 nM | 497 nM | 3540 nM |  |  | 
16 | KLFKRERDAI | 14200 nM | ≥ 70000 nM | 1480 nM | 92 nM | 120 nM |  |  | 
17 | ALTDVEKRI | 14300 nM | 23900 nM | 1150 nM | 74 nM | 1490 nM |  |  | 

Row | Sequence | IC50 [1, 8] | IC50 [2, 8] | IC50 [3, 8] | IC50 [4, 8] | IC50 [5, 8] | IC50 [6, 8] | IC50 [7, 8] | also measured
18 | ETLFGSYIT | 15400 nM |  |  | 2490 nM | 2440 nM | 15600 nM | 465 nM | 
19 | LINLVQYRI | 5340 nM |  |  | 311 nM | 583 nM | 5900 nM | 1730 nM | 
20 | VLQQNNSFI | 8680 nM | 16300 nM | 234 nM | 100 nM | 249 nM |  |  | 
21 | IVSSYVCSGL |  |  |  |  |  |  |  | IC50 [6, 9]: 6200 nM; IC50 [1, 9]: 12700 nM; IC50 [4, 9]: 161 nM; IC50 [5, 9]: 795 nM; IC50 [7, 9]: 767 nM
22 | ALANTIEV |  |  |  |  |  |  |  | IC50 [1, 9]: 9130 nM; IC50 [2, 9]: 59300 nM; IC50 [4, 9]: 162 nM; IC50 [5, 9]: 59 nM
23 | EMKYALINL | ≥ 70000 nM |  |  | 3060 nM | 63 nM | 41200 nM | 2470 nM | 
24 | DVDIPTFNSL | 9710 nM |  |  | 1810 nM | 1030 nM | 18200 nM | 3050 nM | 
25 | TLFIDRGSI | ≥ 70000 nM |  |  | 2100 nM | 802 nM | 17700 nM | 181 nM | 
26 | NASKTINAL | 6110 nM |  |  | 117 nM | 708 nM | 26800 nM | 52 nM | 
27 | LLEMKYALI | 14900 nM | 35800 nM | 2540 nM | 354 nM | 135 nM |  |  | 
28 | VTSPLTGNNT | 5130 nM |  |  | 1450 nM | 2500 nM | 39500 nM | 510 nM | 
29 | KCMSAALKNL |  |  |  |  |  |  |  | IC50 [1, 11]: 14000 nM; IC50 [2, 11]: 43500 nM; IC50 [3, 11]: 1560 nM; IC50 [4, 11]: 58 nM; IC50 [5, 11]: 193 nM
30 | IQKDINITHT | 61700 nM |  |  | 1360 nM | 340 nM | 37400 nM | 4990 nM | 
31 | IADIRDKYM | 57800 nM |  |  | 63 nM | 230 nM | 11400 nM | 3110 nM | 
32 | YTKHSMLTNA | 7340 nM |  |  | 3900 nM | 141 nM | 38300 nM | 1420 nM | 
33 | KLFKRERDA | 14900 nM | 35800 nM | 859 nM | 2390 nM | 985 nM |  |  | 
34 | IVSLCPTKKL | 28500 nM |  |  | 9.5 nM | 29 nM | 9970 nM | 520 nM | 
